Measurements as given in US20240026407A1, “MODIFICATION OF SAPONINS” (GLAXOSMITHKLINE BIOLOGICALS SA, priority 2020, published 2024).

What was measured:
Type in all cases: biochemical, Quillaja saponaria
[1] = Experiment 5-1: screening of additional glucosidases for deglycosylation with purified QS-18 (0.04 mg/ml) at pH 7.5 and 30 deg C; conditions: pH 7.5, 30 degrees C, 18 hours, LCMS/MS
Experimental: The 94 additional genes, together with positive control (DNA encoding SEQ ID No. 262) and negative control, were transformed, expressed, lysed and reacted in the same manner as described above for Experiment 4-1, except the reaction was incubated at 30 degrees C. for 18 hours.
Samples were analysed by LCMS/MS according to the procedure in Experiment 4-1.

[2] = Experiment 5-2: screening of additional glucosidases for deglycosylation with QS-18 in crude bark extract (80%) at pH 6 and 35 deg C; conditions: CBE 80%, pH 6, 35 deg C, 18 hours; UV HPLC
Summary of the method: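 Deglycosylation of QS-18 was monitored by UV HPLC after MeCN/AcOH quench with hexanophenone. The reaction ran 18 hours at 35 deg C, shaking, combining clarified pH 6 lysate with crude bark extract neutralised to pH 6 by NaOH.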

[3] = Experiment 5-3: screening of additional glucosidases for deglycosylation with QS-18 in treated bark extract (80%) at pH 6 and 35 deg C; conditions: TBE 80% (QS-21 approx. 4 g/L), pH 6, 35 deg C; UV HPLC
Experimental: Experiment 5-1 was repeated, replacing CBE with Treated Bark Extract (TBE) at pH 6. TBE was prepared from CBE by PVPP treatment and concentration, to provide TBE with a QS-21 concentration of approximately 4 g/L. TBE was adjusted to pH 6 by dropwise addition of 2M NaOH with stirring.

Molecule | Experiment 5-1 % conv [1] | Experiment 5-2 % conv [2] | Experiment 5-3 % conv [3]
828 (protein, listed as Bifidobacterium pseudocatenulatum) MSEKTYPSINDLTLEEKASLTSGGDAWHLQGVEAKGIPGYMITDGPHGLRKSNSATTGEVDLNNCVPATCFPPAAGLSSSWNPELIHQVGEAMAEECIQEKVAVILGPGVNIKRNPLGGRCFEYWSEDPYLAGHEAIGIVAGVQSKGVGTSLKHFAANNQETDRLRISANISQRALREIYFPAFEHIVKEAQPWTIMCAYNCINGVHAAQDHWLLTDVLRDEWGFQGIVMSDWGADHDRVASLNAGLNLEMPPSYTDDQIVYAARDGRIQPAQLDHMAQGMIDLVNKTRAAMSIENYRFDIEAHDEVAHQAAIESMVLLKNDDAILPIAGDAKVTVIGEFARTPRYQGGGSSHITPTKMTSFLDTLTERGVDAKFAPGFTLDLEPADPALEAEAVDAAKGADVVLMFLGLPEAAESEGFDRETLDMPAKQIALLEAVAAENKNVVVVLSNGSVVTVAPWAKNAKGILESWLLGQSGGPALADVLFGKVSPSGKLAQTIPFDINDDPSTINWPGEEGHVDYGEGVFVGYRYYDTYNKAVDYPFGFGLSYATFEVSDVKAVKTGACTASVSAVVKNTSNVDAAETVQVYVAPGKADVVRPKHELKGFKKVFLKAGESAEVSFELDDRAFAYWSERFNDWHVESGEYTIEVGTSSRDIAGSAVVELDGDGKAQPLTEWSNFMEWRKDPLGSKVLEILRAEGEAGRMPVVPDNDMTRLFLDSMPINSMSVLMGADGKQIFEYMLEKYAELTK | 50.7% | <0.5% | <0.5%
870 (protein, Bifidobacterium asteroides) MTEQTHTKAKDLDLQEEASLTSGSDSWHLQGLPDKGYEGYMITDGPYGLRKATGSDVYGSVPATCFPPTAGLASSWNPDLTYQVGQAMGEECIQEKVAVILGPGINIKRSPLGGRNFEFYSEDPVLAGHEAAGLVEGVQSKGVGTSLKHFAANNQETDRLRVSSDVDVRTLREIYLPAFEYVVKNAKPWTIMCAYNKVNGVFSSENRWLLTDVLRGEWGYQGMVMSDWGAVHNRVDALQAGLNLEMPPSRTDDQVVQAVQAGKLDKEQLDRMAQGILDLIDKARPAMSQQGYRYDVQEHNDMARRAAQESIVLLRNEDRILPLDPQKKVAVIGEFARTPRYQGGGSSHITPTEVSSALDGFKEAGMNVDFAPGFTLDEKEQDPALTRQALEVARGADTVVLFLGLPEYAESEGFDRTSMDLPEKQVALLKAVSEVNDRVVAVLSNGAVVTVADWMDKTKGLLETWLLGQEGGRAVVDVLTGAATPSGHLPETIPVRLEDNPTITSFPGEEGHSRYGEGVYVGYRYYDTFQRPVAFPFGFGLSYADFALDQVAVTKTGASSARVEVTVTNTSQVDGAQTVQVYVAPCASRVNRPSHELKAFTKVFLKAGQSSRVSMDLTERDFAYWSTAMDAWHVEAGTYRIQVGTSSRDLVAEEDLQVDGDGRFIPLNAESTMAEWRENSIGGPIMRDRIDQDGIPLPDDPNTAQLFDTMPLASVITLSGGDGNGIVADMVDRYHQALKQQGRDS | 49.7% | <0.5% | <0.5%
873 (protein, listed as Bifidobacterium longum) MSESTYPSVKDLTLEEKASLTSGGDAWHLQGVEAKGIPGYMITDGPHGLRKSLTSSTGETDLDNSVPATCFPPAAGLSSSWNPELIHKVGEAMAEECIQEKVAVILGPGVNIKRNPLGGRCFEYWSEDPYLAGHEAIGIVAGVQSKGVGTSLKHFAANNQETDRLRVDARISQRALREIYLPAFEHIVKTAQPWTIMCSYNRINGVHSAQNHWLLTDVLRDEWGFEGIVMSDWGADHDRVASLNAGLNLEMPPSYTDDQIVYAARDGRIAPAQLDRMAQGMIDLINKARAAMSIDGYRFDVDAHDEVAHQAAIESIVLLKNDDAILPLNADPAAARKIAVIGEFARTPRYQGGGSSHITPTKMTSFLDTLAERGIKADFAPGFTLDMESADPALESEAVETAKNADVVLMFLGLPEAAESEGFDRDTLDMPAKQIALLEQVAAANKNVVVVLSNGSVITVAPWAKNAKGILESWLLGQSGGPALADVIFGQVSPSGKLAQSIPLDINDDPSMLNWPGEEGHVDYGEGVFVGYRYYDTYGKVVDYPFGYGLSYATFEIADVAAAKTGANTATVTATVTNTSDVDASETVQVYVAPGKADVARPKHELKGFTKVFLKAGESKTVTIDLDERAFAYWSEKYNDWHVESGEYAIEVGTSSRDIAETVTVALDGDGKTQPLTEWSTYGEWEADPFGAKIVAAVAAAGEAGELLKLPDNAMMRMFLNSMPINSLPTLLGEGGKKIAQFMLDEYAKLSK | 43.9% | <0.5% | <0.5%
844 (protein, listed as Paenarthrobacter aurescens) MNPTLSAAVTAPSAGTQDAEAEIRDLAQSLTLEQQVQLLTGADVWSTHAIPEIGLSRVVMSDGPAGVRGEDFDERHDSVSLPSSSALSATWSVETARNYGQVLGQEARRKGVHAVLGPTINLHRSPLGGRHFECMSEDPRLTATMAAGYVAGVQSMGVGATPKHYLANEAETERFTADSVVDERPLRELYLAAFEDAITEARAWLVMSSYNSINGTTASENKLLETPLSTEWGFDGVVVSDWTGVRSIDAANAHQDLEMPGPVGHWGPKLLAAVNEGRVSREAILEKVTRILRLAARVGSLEGFEPAVTHLPTELNGAAVAREVAVRGAVLVRNKGLLPLDAKALGSVAVIGHNADEARTQGGGSATVMPKYTVSPLEGLRKALPEGVKVTYARGAKVAEGIQAFPRTSLHNPVSNVPGIRVTFLAEDGTEISGEDRLASHLIWFGIGIPDGAASIRMEADWTAETAGVHHLGVGTVGRIRFVLDGTEVFNSELEDDTEVLGAALFDPPKTVHAIDTTAGQSIRIEAEYQLPKEQVIPFTAILLGEETVVAEPQAEIDAAVEAARASDVAVVVVGTNAAIESEGFDRKDLDLPGYQNQLVKAVAAANPRTVVVVNSGSPVLMPWLDTVDAVLLGWFGGQEFGSAVADILLGVEEPGGRLPTTWPSALDDVPVLNTTPTDGKVVYSEGIHIGYRAWLKQQAEGGAAPALPFGFGLGYTTFEFGKAHAPQAVTAGKDLVVHVPVKNTGTRTGREVVQVYVERTESAVERPVRWLAGYAGAHLAPAGTESVEIRIPAKAFAHYDGGWQFEQGTFRLLVGRHAADDFQSLDIELR | 43.6% | <0.5% | <0.5%
882 (protein, listed as Acidipropionibacterium acidipropionici) MAESPIQSLSMRSLSTEQKAALTSGADFWHTESCAPLGLPAIMLTDGPHGLRKQTGSTDMLGLGSSVPATCFPPAVGLGSSWDVDLIHRVGAALGAEASIEGVAVLLGPAINIKRSPLCGRNFEYISEDPLVAGTLGAAMVEGIQSRAVGACVKHFAANNQETDRMRVSADVDPRALHEIYLRAFEQVVRRAEPWMVMCSYNRINGVPASQDHWLLTDLLRGQWGFDRVVVSDWGAVSDRVASLSAGLDLEMPGTAGRTDAQILAALASGTLDEETLDSAAARVVTLLRRAAVGAGEVSGPLDVDAHHRLAREAAARSIVLLRNEVQRSETTGDEGALLPLRPDARIAVIGAFAEQPRYQGAGSSRINPTRLDTALAEIRALASGEVSYSPGFRLTPESVGPAEELRRDAAEAASQAEVAVVFLGLGDDAESEGFDRTGIDLSADQLALLDDVLAANPNTVVVLSNGAVVALPFADRVPAILEAWLGGQAGGGGVADVLFGRVNPSGRLTETIPKRLADSPAYLDFPGEHGHVRYGEGIFVGYRWYDARELEVAFPFGHGLSYTTFSYGQASAALDEDGNITVRLPVTNTGAVAGREVVQAYVSLPGSAVQRPPRELKGFVVVEAEPGQTVEAEMLIRREDLAYWDLRIDRWRVEAGTYRIDVAASSRDIRSSVEVVVPDGDAPIPLNWDSTLGELMAHPVAGPALAQAMAGALEGFAGAGDLMPAGAMAQMAGSLPLRALLTLGGDAVTPETLNQLIVLANGSPRK | 31.4% | <0.5% | <0.5%
